Test results as given in US20030068675, “Position dependent recognition of GNN nucleotide triplets by zinc fingers” (published 2003).
Numbering of substitutions follows the chain as printed.

Tests used:
Assay in all cases: EMSA
Conditions in all cases: tags: MBP fusion
ZFP SBS#1166 = ZFP SBS#1166 (synthetic)
Procedure, shortened: (§1)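 Purified ZFP was titrated against labeled double-stranded target (1 nM or lower, at least 10-fold below expected Kd) carrying the natural binding site with flanks. Binding buffer was 10 mM Tris pH 7.5, 100 mM KCl, 1 mM MgCl2, 0.1 mM ZnCl2, 5 mM DTT, 10% glycerol, 0.02% BSA, with equilibration for at least 45 min. Bound and free target were separated on a 10% polyacrylamide gel.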

ZFP SBS#1165 = ZFP SBS#1165 (synthetic)
Procedure, shortened: as §1

ZFP SBS#1167 = ZFP SBS#1167 (synthetic)
Procedure, shortened: as §1

ZFP SBS#1162 = biological target: T1, ZFP SBS#1162 (synthetic)
T1 chain: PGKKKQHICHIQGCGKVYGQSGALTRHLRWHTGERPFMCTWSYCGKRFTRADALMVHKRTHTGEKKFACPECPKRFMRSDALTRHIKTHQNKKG
Procedure, shortened: as §1

ZFP SBS#1100 = biological target: T2, ZFP SBS#1100 (synthetic)
T2 chain: T1 chain with A51G, M55T, V56S
Procedure, shortened: as §1

ZFP SBS#1183 = biological target: T3, ZFP SBS#1183 (synthetic)
T3 chain: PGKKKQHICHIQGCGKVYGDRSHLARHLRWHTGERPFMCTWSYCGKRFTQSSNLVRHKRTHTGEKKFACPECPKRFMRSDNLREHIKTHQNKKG
Procedure, shortened: as §1

ZFP SBS#1182 = ZFP SBS#1182 (synthetic)
Procedure, shortened: as §1

ZFP SBS#1161 = biological target: T4, ZFP SBS#1161 (synthetic)
T4 chain: T3 chain with Q50D, S51R, N53D, V55T, R83A, E84R
Procedure, shortened: as §1

ZFP SBS#1177 = biological target: T5, ZFP SBS#1177 (synthetic)
T5 chain: T3 chain with D20Q, R21S, S22G, H23S, A25T, Q50D, S51R, N53H, V55A, N81T
Procedure, shortened: as §1

ZFP SBS#478 = ZFP SBS#478 (synthetic, UniProt P08047)
Procedure, shortened: as §1

ZFP SBS#476 = ZFP SBS#476 (synthetic, UniProt P08047)
Procedure, shortened: as §1

ZFP SBS#477 = ZFP SBS#477 (synthetic)
Procedure, shortened: as §1

ZFP SBS#1160 = biological target: T6, ZFP SBS#1160 (synthetic)
T6 chain: T3 chain with N81H, R83T, E84T
Procedure, shortened: as §1

ZFP SBS#1164 = biological target: T7, ZFP SBS#1164 (synthetic)
T7 chain: T1 chain with Q20E, S21R, A23D, R50Q, A51S, D52V, A53H, M55Q, V56S
Procedure, shortened: as §1

ZFP SBS#1163 = biological target: T8, ZFP SBS#1163 (synthetic)
T8 chain: T1 chain with Q20E, S21R, A23D, R50Q, A51S, D52G, A53H, M55T, V56T
Procedure, shortened: as §1

ZFP SBS#1092 = biological target: T9, ZFP SBS#1092 (synthetic)
T9 chain: T1 chain with G22S, A23D, T25R, A51G, M55T, V56S, R78D, S79R, D80S, A81D
Procedure, shortened: as §1

ZFP SBS#1170 = biological target: T10, ZFP SBS#1170 (synthetic)
T10 chain: T1 chain with G22S, A23D, T25R, R78D, S79R, D80S, A81D
Procedure, shortened: as §1

ZFP SBS#1175 = ZFP SBS#1175 (synthetic)
Procedure, shortened: as §1

ZFP SBS#1128 = biological target: T11, ZFP SBS#1128 (synthetic)
T11 chain: T3 chain with D20E, S22G, H23D, A25T, Q50D, S51P, S52G, N53A, R83T, E84Q
Procedure, shortened: as §1

ZFP SBS#1126 = biological target: T12, ZFP SBS#1126 (synthetic)
T12 chain: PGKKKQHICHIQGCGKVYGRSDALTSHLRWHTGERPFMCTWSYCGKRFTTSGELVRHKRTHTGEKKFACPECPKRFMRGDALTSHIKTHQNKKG
Procedure, shortened: as §1

ZFP SBS#1181 = biological target: T13, ZFP SBS#1181 (synthetic)
T13 chain: T12 chain with T25R, S26Q
Procedure, shortened: as §1

ZFP SBS#1174 = ZFP SBS#1174 (synthetic)
Procedure, shortened: as §1

ZFP SBS#1173 = ZFP SBS#1173 (synthetic)
Procedure, shortened: as §1

ZFP SBS#1099 = biological target: T14, ZFP SBS#1099 (synthetic)
T14 chain: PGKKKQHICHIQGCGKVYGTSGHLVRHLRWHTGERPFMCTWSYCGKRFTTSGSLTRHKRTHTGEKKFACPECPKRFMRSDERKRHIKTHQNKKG
Procedure, shortened: as §1

ZFP SBS#1093 = ZFP SBS#1093 (synthetic)
Procedure, shortened: as §1

ZFP SBS#1171 = biological target: T15, ZFP SBS#1171 (synthetic)
T15 chain: T14 chain with T20R, G22D, H23D, V25R, R26T, T50R, G52D, S53N, T55A
Procedure, shortened: as §1

ZFP SBS#1168 = ZFP SBS#1168 (synthetic)
Procedure, shortened: as §1

ZFP SBS#1090 = biological target: T16, ZFP SBS#1090 (synthetic, UniProt P08047)
T16 chain: T12 chain with T25R, S26E, T50R, G52D, V55Q, G79S, A81N, S84Q
Procedure, shortened: as §1

ZFP SBS#1131 = biological target: T17, ZFP SBS#1131 (synthetic)
T17 chain: T1 chain with Q20E, S21R, A23D, R50Q, A51R, D52A, A53H, M55E, V56R
Procedure, shortened: as §1

ZFP SBS#1176 = ZFP SBS#1176 (synthetic)
Procedure, shortened: as §1

ZFP SBS#1172 = biological target: T18, ZFP SBS#1172 (synthetic)
T18 chain: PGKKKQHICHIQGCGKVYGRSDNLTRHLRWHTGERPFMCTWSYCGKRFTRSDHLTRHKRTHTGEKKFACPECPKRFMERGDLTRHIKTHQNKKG
Procedure, shortened: as §1

ZFP SBS#1098 = ZFP SBS#1098 (synthetic)
Procedure, shortened: as §1

ZFP SBS#1159 = biological target: T19, ZFP SBS#1159 (synthetic)
T19 chain: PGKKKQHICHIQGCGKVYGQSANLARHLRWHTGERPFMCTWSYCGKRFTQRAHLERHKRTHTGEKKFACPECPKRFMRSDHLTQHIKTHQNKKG
Procedure, shortened: as §1

ZFP SBS#1158 = ZFP SBS#1158 (synthetic)
Procedure, shortened: as §1

ZFP SBS#1091 = biological target: T20, ZFP SBS#1091 (synthetic)
T20 chain: T18 chain with R20D, S21R, D22S, H53N, T55A, E78Q, G80A, D81S, T83A
Procedure, shortened: as §1

ZFP SBS#1169 = biological target: T21, ZFP SBS#1169 (synthetic)
T21 chain: T3 chain with H23N, A25T, Q50R, S52D, V55A, R78Q, D80S, N81S, R83V, E84R
Procedure, shortened: as §1

ZFP SBS#1178 = biological target: T22, ZFP SBS#1178 (synthetic)
T22 chain: T3 chain with Q50T, S52G, R83A, E84R
Procedure, shortened: as §1

B1: GCGAAGGTG (dsDNA)
DNA 1: GCGAAGGTG
DNA 2: CACCTTCGC
B1 showed a Kd (ZFP SBS#1166) of 0.195 nM, a Kd (ZFP SBS#1165) of 1.4 nM and a Kd (ZFP SBS#1167) of 0.95 nM.

B2: GTGTTGGTA (dsDNA)
DNA 1: GTGTTGGTA
DNA 2: TACCAACAC
For B2, the Kd (ZFP SBS#1162) was 0.465 nM and the Kd (ZFP SBS#1100) was 1.4 nM.

B3: CAGGAAGGC (dsDNA)
DNA 1: CAGGAAGGC
DNA 2: GCCTTCCTG
With B3 the Kd (ZFP SBS#1183) was 1.94 nM and the Kd (ZFP SBS#1182) was 1.48 nM.

B4: GAGGCCGGC (dsDNA)
DNA 1: GAGGCCGGC
DNA 2: GCCGGCCTC
For B4, the Kd (ZFP SBS#1161) was 0.45 nM.

B5: CCGGGCGCA (dsDNA)
DNA 1: CCGGGCGCA
DNA 2: TGCGCCCGG
With B5 the Kd (ZFP SBS#1177) was 4.1 nM.

B6: GGAGAGGATG (dsDNA)
DNA 1: GGAGAGGATG
DNA 2: CATCCTCTCC
Work on B6 yielded a Kd (ZFP SBS#478) of 60 nM, a Kd (ZFP SBS#476) of 80 nM and a Kd (ZFP SBS#477) of 100 nM.

B7: TGGGAAGGC (dsDNA)
DNA 1: TGGGAAGGC
DNA 2: GCCTTCCCA
With B7 the Kd (ZFP SBS#1160) was 0.415 nM.

B8: GTGTGAGCC (dsDNA)
DNA 1: GTGTGAGCC
DNA 2: GGCTCACAC
B8 gave a Kd (ZFP SBS#1164) of 15.4 nM and a Kd (ZFP SBS#1163) of 1.45 nM.

B9: GCCTTGGCT (dsDNA)
DNA 1: GCCTTGGCT
DNA 2: AGCCAAGGC
B9 was tested, and the Kd (ZFP SBS#1092) was 2.73 nM and the Kd (ZFP SBS#1170) was 2.75 nM.

B10: AAGGTCGCC (dsDNA)
DNA 1: AAGGTCGCC
DNA 2: GGCGACCTT
Binder B10 has a Kd (ZFP SBS#1175) of 8.9 nM and a Kd (ZFP SBS#1128) of 5.45 nM.

B11: TTGGCTATG (dsDNA)
DNA 1: TTGGCTATG
DNA 2: CATAGCCAA
With B11 the Kd (ZFP SBS#1126) was 0.46 nM and the Kd (ZFP SBS#1181) was 8.2 nM.

B12: GCTGAAGGG (dsDNA)
DNA 1: GCTGAAGGG
DNA 2: CCCTTCAGC
B12 was tested, and the Kd (ZFP SBS#1174) was 0.018 nM and the Kd (ZFP SBS#1173) was 8 pM.

B13: GCGGAGTCG (dsDNA)
DNA 1: GCGGAGTCG
DNA 2: CGACTCCGC
Work on B13 yielded a Kd (ZFP SBS#1099) of 0.45 nM, a Kd (ZFP SBS#1093) of 0.046 nM and a Kd (ZFP SBS#1171) of 0.18 nM.

B14: AAGGCGCTG (dsDNA)
DNA 1: AAGGCGCTG
DNA 2: CAGCGCCTT
With B14 the Kd (ZFP SBS#1168) was 2.8 nM and the Kd (ZFP SBS#1090) was 30.3 nM.

B15: GTGGGAGCC (dsDNA)
DNA 1: GTGGGAGCC
DNA 2: GGCTCCCAC
B15 gave a Kd (ZFP SBS#1131) of 0.95 nM and a Kd (ZFP SBS#1176) of 4.1 nM.

B16: GCCGGGGAG (dsDNA)
DNA 1: GCCGGGGAG
DNA 2: CTCCCCGGC
B16 gave a Kd (ZFP SBS#1172) of 0.01 nM and a Kd (ZFP SBS#1098) of 0.055 nM.

B17: AGGGGAGAA (dsDNA)
DNA 1: AGGGGAGAA
DNA 2: TTCTCCCCT
B17 gave a Kd (ZFP SBS#1159) of 0.555 nM and a Kd (ZFP SBS#1158) of 0.1 nM.

B18: GTAGAGGAC (dsDNA)
DNA 1: GTAGAGGAC
DNA 2: GTCCTCTAC
In the case of B18, the Kd (ZFP SBS#1091) is reported as 0.085 nM and the Kd (ZFP SBS#1169) is reported as 0.053 nM.

B19: GAGGATGGC (dsDNA)
DNA 1: GAGGATGGC
DNA 2: GCCATCCTC
Work on B19 yielded a Kd (ZFP SBS#1178) of 0.085 nM.
